# Measurements as given in the supplement of paper PMC10598134.
# ± gives the standard deviation.
# Experiment: collision cross section of modified peptide (TIMS, N2, iRT-aligned); higher = larger / more extended gas-phase ion
# Procedure, shortened: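 Collision cross section was derived from the Mason-Schamp equation. Each value averages 1–3 technical replicates of the most abundant feature per charge state, measured on a timsTOF Pro/HT in dda-PASEF mode (nitrogen, ~2.4 mbar) after a 120-min nanoflow C18 gradient at 60 °C. Synthetic peptide pools (~100 fmol/µL in 2% acetonitrile/0.1% formic acid, iRT standard spiked 1:40) were identified with MaxQuant, and 1/K0 was calibrated with three reference ions and aligned run-wise to the median iRT peptide deviation.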
# [1] = charge state: 2, modification: Trimethyl (K)
# [2] = charge state: 3, modification: Trimethyl (K)
# [3] = charge state: 2, modification: Acetyl (K)
# [4] = charge state: 3, modification: Acetyl (K)
# [5] = charge state: 2, modification: Methyl (K)
# [6] = charge state: 3, modification: Methyl (K)
# [7] = charge state: 3, modification: Methyl (R)
# [8] = charge state: 3, modification: Biotin
# [9] = charge state: 2, modification: Formyl
# [10] = charge state: 2, modification: GlyGly (K)
# [11] = charge state: 3, modification: GlyGly (K)
# [12] = charge state: 2, modification: Citrullination (R)
# [13] = charge state: 2, modification: Malonyl
# [14] = charge state: 2, modification: hydroxyisobutyryl
# [15] = charge state: 2, modification: HexNAc (ST)
# [16] = charge state: 2, modification: Biotin
# [17] = charge state: 2, modification: Succinyl
# [18] = charge state: 2, modification: Glutarylation
# [19] = charge state: 3, modification: Glutarylation
# [20] = charge state: 3, modification: Citrullination (R)
# [21] = charge state: 2, modification: Methyl (R)
# [22] = charge state: 3, modification: Malonyl
# [23] = charge state: 2, modification: Nitro (Y)
# [24] = charge state: 2, modification: Dimethyl (K)
# [25] = charge state: 3, modification: Dimethyl (K)
# [26] = charge state: 3, modification: Butyryl
# [27] = charge state: 3, modification: Succinyl
# [28] = charge state: 2, modification: Crotonyl
sequence,measurement,setting,value
DASTLQSQKAEGTGDAK [_DASTLQSQK(Trimethyl (K))AEGTGDAK_],collision cross section,[1],445.31 ± 1 Å²
same,collision cross section,[2],482.47 ± 1.6 Å²
SKHLQEQLNELK [_SK(Acetyl (K))HLQEQLNELK_],collision cross section,[3],415.42 ± 1.7 Å²
same,collision cross section,[4],483.11 ± 1.6 Å²
PSVGSQSNQAGQGKR [_PSVGSQSNQAGQGK(Methyl (K))R_],collision cross section,[5],426.09 ± 2.3 Å²
same,collision cross section,[6],471.73 ± 2.8 Å²
LVLPSQAQARLPSGEVVK [_LVLPSQAQAR(Methyl (R))LPSGEVVK_],collision cross section,[7],522.24 ± 0.66 Å²
HELQANCYEEVKDR [_HELQANCYEEVK(Biotin)DR_],collision cross section,[8],512.53 ± 1.6 Å²
LQAAYAGDKADDIQK [_LQAAYAGDK(Formyl)ADDIQK_],collision cross section,[9],428.24 ± 0.79 Å²
TVSKVDDFLANEAK [_TVSK(GlyGly (K))VDDFLANEAK_],collision cross section,[10],429.63 ± 1.4 Å²
same,collision cross section,[11],494.01 ± 1.9 Å²
GRGAAAAGGPQR [_GR(Citrullination (R))GAAAAGGPQR_],collision cross section,[12],334.88 ± 0.28 Å²
TGGTQTDLFTCGKCK [_TGGTQTDLFTCGK(Malonyl)CK_],collision cross section,[13],436.14 ± 0.67 Å²
GGPGSTLSFVGKR [_GGPGSTLSFVGK(Formyl)R_],collision cross section,[9],378.65 ± 0.9 Å²
VDVEVPDVSLEGPEGKLK [_VDVEVPDVSLEGPEGK(Acetyl (K))LK_],collision cross section,[3],461.92 ± 2.1 Å²
same,collision cross section,[4],555.98 Å²
PANEKATDDYHYEK [_PANEK(hydroxyisobutyryl)ATDDYHYEK_],collision cross section,[14],446.18 ± 0.51 Å²
same,collision cross section,"charge state: 3, modification: hydroxyisobutyryl",509.04 ± 1.9 Å²
TGGTQTDLFTCGKCK [_TGGTQTDLFTCGK(GlyGly (K))CK_],collision cross section,[10],442.06 Å²
same,collision cross section,[11],489.77 ± 1.1 Å²
ESISVSSEQLAQFR [_ES(HexNAc (ST))ISVSSEQLAQFR_],collision cross section,[15],438.25 Å²
LQLEIDQKK [_LQLEIDQK(Biotin)K_],collision cross section,[16],382.89 ± 0.23 Å²
IDLPAENSNSETIIITGKR [_IDLPAENSNSETIIITGK(Succinyl)R_],collision cross section,[17],492.62 ± 0.3 Å²
TQAYQDQKPGTSGLR [_TQAYQDQK(Methyl (K))PGTSGLR_],collision cross section,[5],422.44 Å²
same,collision cross section,[6],472.98 ± 2.7 Å²
ISSNFSSIIAEKLR [_ISSNFSSIIAEK(hydroxyisobutyryl)LR_],collision cross section,[14],431.4 ± 1.4 Å²
LLFSNTAAQKLR [_LLFSNTAAQK(Gluratylation)LR_],collision cross section,[18],406.85 ± 0.6 Å²
same,collision cross section,[19],487.13 ± 1.7 Å²
VTRYPILGIPQAHR [_VTR(Citrullination (R))YPILGIPQAHR_],collision cross section,[20],520.51 ± 0.78 Å²
GRGGAESHTFK [_GR(Methyl (R))GGAESHTFK_],collision cross section,[21],352.3 ± 2.4 Å²
same,collision cross section,[7],441.34 ± 2.6 Å²
SPSDSGYSYETIGKTTK [_SPSDSGYSYETIGK(Gluratylation)TTK_],collision cross section,[18],456.74 ± 1.5 Å²
same,collision cross section,[19],531.96 ± 0.12 Å²
SKLLFSNTAAQK [_SK(Acetyl (K))LLFSNTAAQK_],collision cross section,[3],396.66 ± 1.3 Å²
VTLEVGKVIQQGR [_VTLEVGK(Malonyl)VIQQGR_],collision cross section,[13],413.16 ± 1.2 Å²
same,collision cross section,[22],480.87 ± 1.8 Å²
VDIDAPDVSIEGPDAKLK [_VDIDAPDVSIEGPDAK(Trimethyl (K))LK_],collision cross section,[1],465.65 ± 1.2 Å²
same,collision cross section,[2],534.07 ± 1.8 Å²
IQQELQTAKK [_IQQELQTAK(Biotin)K_],collision cross section,[16],397.29 ± 2.2 Å²
same,collision cross section,[8],468.38 ± 0.34 Å²
DTPTSAGPNSFNKGK [_DTPTSAGPNSFNK(Acetyl (K))GK_],collision cross section,[3],406.79 ± 1.5 Å²
IYHPNVDK [_IY(Nitro (Y))HPNVDK_],collision cross section,[23],340.06 ± 0.72 Å²
same,collision cross section,"charge state: 3, modification: Nitro (Y)",427.49 ± 0.064 Å²
FLQEFYQDDELGKK [_FLQEFYQDDELGK(Dimethyl (K))K_],collision cross section,[24],456.43 ± 1.8 Å²
same,collision cross section,[25],499.62 ± 0.75 Å²
LDEKENLSAK [_LDEK(Methyl (K))ENLSAK_],collision cross section,[5],366.29 ± 0.55 Å²
LPTTAASTPDAVDK [_LPT(HexNAc (ST))TAASTPDAVDK_],collision cross section,[15],413.95 ± 0.62 Å²
YSSSSIPEPFGSRGSPR [_YSSSSIPEPFGSR(Citrullination (R))GSPR_],collision cross section,[12],439.28 ± 0.2 Å²
same,collision cross section,[20],523.88 Å²
GTITVSAQELKDNR [_GTITVSAQELK(Acetyl (K))DNR_],collision cross section,[3],415.96 ± 1.9 Å²
same,collision cross section,[4],479.46 ± 0.78 Å²
GTITVSAQELKDNR [_GTITVSAQELK(Dimethyl (K))DNR_],collision cross section,[24],437.65 ± 1.3 Å²
same,collision cross section,[25],475.47 ± 2.4 Å²
DNNNSNNRGSYNR [_DNNNSNNR(Methyl (R))GSYNR_],collision cross section,[7],460.8 ± 2.4 Å²
SLFFGGKGAPLQR [_SLFFGGK(Biotin)GAPLQR_],collision cross section,[16],419.13 Å²
VETTVTSLKTK [_VETTVTSLK(Biotin)TK_],collision cross section,[16],412.03 ± 1.9 Å²
GTISAPGKVVTAAAQAK [_GTISAPGK(Methyl (K))VVTAAAQAK_],collision cross section,[5],466.62 ± 2.3 Å²
same,collision cross section,[6],495.95 ± 2.3 Å²
GGSAGGRGFFR [_GGSAGGR(Methyl (R))GFFR_],collision cross section,[21],365.18 ± 0.78 Å²
same,collision cross section,[7],426.87 ± 4.1 Å²
VPGVGLPGVYPGGVLPGAR [_VPGVGLPGVYPGGVLP(Hydroxyproline)GAR_],collision cross section,"charge state: 2, modification: Hydroxyproline",432.24 ± 0.28 Å²
same,collision cross section,"charge state: 3, modification: Hydroxyproline",534.68 ± 3 Å²
FLQEFYQDDELGKK [_FLQEFYQDDELGK(Butyryl)K_],collision cross section,"charge state: 2, modification: Butyryl",451.46 ± 0.51 Å²
same,collision cross section,[26],506.1 Å²
LTSLNVKYNNDK [_LTSLNVK(Methyl (K))YNNDK_],collision cross section,[5],408.99 ± 1.4 Å²
same,collision cross section,[6],486.12 ± 3.3 Å²
SSGPGGQNVNKVNSK [_SSGPGGQNVNK(Malonyl)VNSK_],collision cross section,[13],402.61 ± 1.8 Å²
same,collision cross section,[22],439.94 ± 2.2 Å²
GETASKLQSEISR [_GETASK(Malonyl)LQSEISR_],collision cross section,[13],395.19 ± 0.023 Å²
LFVGGIKEDTEEHHLR [_LFVGGIK(Succinyl)EDTEEHHLR_],collision cross section,[17],497.55 Å²
same,collision cross section,[27],541.97 ± 1.1 Å²
VGLQVVAVKAPGFGDNR [_VGLQVVAVK(Gluratylation)APGFGDNR_],collision cross section,[18],447.64 ± 0.95 Å²
same,collision cross section,[19],510.32 ± 1 Å²
AQPQDSRGGSK [_AQPQDSR(Methyl (R))GGSK_],collision cross section,[21],351.96 ± 2.1 Å²
GDYDLNAVR [_GDY(Nitro (Y))DLNAVR_],collision cross section,[23],344.3 ± 0.72 Å²
IVFSGNLFQHQEDSKK [_IVFSGNLFQHQEDSK(Crotonyl)K_],collision cross section,[28],503.03 ± 1.1 Å²
same,collision cross section,"charge state: 3, modification: Crotonyl",539.53 ± 1.2 Å²
LGPNDQYK [_LGPNDQY(Nitro (Y))K_],collision cross section,[23],332.94 ± 1.8 Å²
YTAQVDAEEK [_Y(Phospho (Y))TAQVDAEEK_],collision cross section,"charge state: 2, modification: Phospho (Y)",361.18 ± 0.78 Å²
DKALPLEAEVAPVK [_DK(Acetyl (K))ALPLEAEVAPVK_],collision cross section,[3],407.82 ± 5.1 Å²
TQAYQDQKPGTSGLR [_TQAYQDQK(Malonyl)PGTSGLR_],collision cross section,[13],430.62 ± 0.59 Å²
same,collision cross section,[22],484.2 Å²
IGNSYFKEEK [_IGNSYFK(Gluratylation)EEK_],collision cross section,[18],381.23 ± 0.61 Å²
VGLQVVAVKAPGFGDNR [_VGLQVVAVK(Methyl (K))APGFGDNR_],collision cross section,[5],454.02 ± 2.2 Å²
same,collision cross section,[6],491.77 ± 3.2 Å²
DLGKFQVATDALK [_DLGK(Crotonyl)FQVATDALK_],collision cross section,[28],409.72 ± 0.55 Å²
ASDTSSETVFGKR [_ASDTSSETVFGK(Propionyl)R_],collision cross section,"charge state: 2, modification: Propionyl",398.28 ± 0.65 Å²
same,collision cross section,"charge state: 3, modification: Propionyl",481.99 Å²
SGGGYGGDRSSGGGYSGDR [_SGGGYGGDR(Methyl (R))SSGGGYSGDR_],collision cross section,[7],484.52 ± 1.5 Å²
TVSKVDDFLANEAK [_TVSK(Formyl)VDDFLANEAK_],collision cross section,[9],415.84 ± 0.18 Å²
DLEEAEEYK [_DLEEAEEY(Nitro (Y))K_],collision cross section,[23],368.75 ± 2.1 Å²
IHVQSSSDSSDEPAEKR [_IHVQSSSDSSDEPAEK(Succinyl)R_],collision cross section,[17],452.62 ± 0.81 Å²
same,collision cross section,[27],507.09 ± 1.9 Å²
YTTNNSSEQR [_Y(Nitro (Y))TTNNSSEQR_],collision cross section,[23],355.01 ± 0.17 Å²
SEASSEFAKK [_SEASSEFAK(Succinyl)K_],collision cross section,[17],351.69 ± 0.87 Å²
STGLELETPSLVPVKK [_STGLELETPSLVPVK(Gluratylation)K_],collision cross section,[18],457.67 ± 1.1 Å²
same,collision cross section,[19],527.31 ± 1.8 Å²
YEQEHAAIQDKLFQVAK [_YEQEHAAIQDK(Butyryl)LFQVAK_],collision cross section,[26],517.33 ± 1 Å²
LLIVSTTPYSEKDTK [_LLIVSTTPYSEK(Formyl)DTK_],collision cross section,[9],448.09 ± 0.69 Å²
same,collision cross section,"charge state: 3, modification: Formyl",480.73 ± 1.5 Å²
